Measured values published in patent US20240124560A1.

Assays:
Assay in all cases: cell-based or functional assay
[1] = target: HIV-1 Env of pseudovirus NIH-056_Q168ENVa2 (HIV-1)
[2] = target: HIV-1 Env of NIH-029_HIV-001428.2.42 (HIV-1)
[3] = target: HIV-1 Env of NAC_94UG103 (HIV-1)
[4] = target: HIV-1 Env of NIH-055_CNE58 (HIV-1)
[5] = target: HIV-1 Env of pseudovirus NIH-018_Du172.17 (HIV-1)
[6] = target: HIV-1 Env of pseudovirus NIH-070_R2184.c04 (HIV-1)
[7] = target: HIV-1 Env of NIH-020_ZM197M.PB7 (HIV-1)
[8] = target: HIV-1 Env of pseudovirus NIH-013_6240.08.TA5.4622 (HIV-1)
[9] = target: HIV-1 Env of NIH-074_C4118.c09 (HIV-1)
[10] = target: HIV-1 Env of NIH-012_1012.11.TC21.3257 (HIV-1)
[11] = target: HIV-1 Env of pseudovirus NIH-049_CNE20 (HIV-1)
[12] = target: HIV-1 Env of pseudovirus NIH-020_ZM197M.PB7 (HIV-1)
[13] = target: HIV-1 Env of pseudovirus NAC_MN (HIV-1) (UniProt P05877)
[14] = target: HIV-1 Env of pseudovirus NIH-031_HIV-16055.2.3 (HIV-1)
[15] = target: HIV-1 Env of pseudovirus NIH-048_CNE19 (HIV-1)
[16] = target: HIV-1 Env of NIH-078_BJOX015000.11.5 (HIV-1)
[17] = target: HIV-1 Env of NIH-047_Ce704809221 1B3 (HIV-1)
[18] = target: HIV-1 Env of NIH-049_CNE20 (HIV-1)
[19] = target: HIV-1 Env of NIH-064_0260.v5.c1 (HIV-1)
[20] = target: HIV-1 Env of NIH-077_BJOX009000.02.4 (HIV-1)
[21] = target: HIV-1 Env of pseudovirus NIH-114_T257.31 (HIV-1)
[22] = target: HIV-1 Env of isolate NIH-088_X1632 S2 B10 (HIV-1)
[23] = target: HIV-1 Env of pseudovirus NIH-101_6540.v4.c1 (HIV-1)
[24] = target: HIV-1 Env of NIH-076_CNE5 (HIV-1)
[25] = target: HIV-1 Env of pseudovirus NIH-088_X1632 S2 B10 (clade G) (HIV-1)
[26] = target: HIV-1 Env of pseudovirus NAC_BaL.26 (HIV-1)
[27] = target: HIV-1 Env of NAC_92TH021 (HIV-1)
[28] = target: HIV-1 Env of NIH-013_6240.08.TA5.4622 (HIV-1)
[29] = target: HIV-1 Env of pseudovirus NIH-051_CNE17 (HIV-1)
[30] = target: HIV-1 Env of pseudovirus NIH-017_Du156.12 (HIV-1)
[31] = target: HIV-1 Env of pseudovirus NAC_ADA (HIV-1)
[32] = target: HIV-1 Env of NIH-005_TRO.11 (HIV-1)
[33] = target: HIV-1 Env of isolate NIH-086_X2131 C1 B5 (HIV-1)
[34] = target: HIV-1 Env of pseudovirus NIH-058_Q23ENV17 (HIV-1)
[35] = target: envelope protein of control pseudovirus NAC_VSV
[36] = target: HIV-1 Env of pseudovirus NIH-106_T250.4 (HIV-1)
[37] = target: HIV-1 Env of NAC_92BR020 (HIV-1)
[38] = target: HIV-1 Env of NIH-011_1056.10.TA11.1826 (HIV-1)
[39] = target: HIV-1 Env of pseudovirus NIH-104_3103.v3.c10 (HIV-1)
[40] = target: HIV-1 Env of pseudovirus NAC_TRJO.58 (HIV-1)
[41] = target: HIV-1 Env of pseudovirus NIH-076_CNE5 (HIV-1)
[42] = target: HIV-1 Env of NIH-017_Du156.12 (HIV-1)
[43] = target: HIV-1 Env of NIH-041_BF1266.431a (HIV-1)
[44] = target: HIV-1 Env of NIH-035_Ce1176 A3 (HIV-1)
[45] = target: HIV-1 Env of pseudovirus NIH-096_6952.v1.c20 (HIV-1)
[46] = target: HIV-1 Env of NIH-042_ZM246F.D5 (HIV-1)

## 4E10 (antibody)
[1]
  neutralization IC50: 3.78 µg/mL
[2]
  IC80 neutralization: 24.7 µg/mL
[3]
  IC80 neutralization: 7.48 µg/mL
[4]
  IC80 neutralization: 2.24 µg/mL
[5]
  neutralization IC50: 0.102 µg/mL
[6]
  neutralization IC50: 0.223 µg/mL
[7]
  IC80 neutralization: 1.08 µg/mL
[8]
  neutralization IC50: 9.78 µg/mL
[9]
  IC80 neutralization: 1.17 µg/mL
[10]
  IC80 neutralization: 8.25 µg/mL
[11]
  neutralization IC50: 0.383 µg/mL
[12]
  neutralization IC50: 0.226 µg/mL
[13]
  neutralization IC50: 0.005 µg/mL
[14]
  neutralization IC50: 1.59 µg/mL
[15]
  neutralization IC50: 0.31 µg/mL
[16]
  IC80 neutralization: 0.647 µg/mL
[17]
  IC80 neutralization: 0.557 µg/mL
[18]
  IC80 neutralization: 1.58 µg/mL
[19]
  IC80 neutralization: 6.08 µg/mL
[20]
  IC80 neutralization: 1.62 µg/mL
[21]
  neutralization IC50: 1.03 µg/mL
[22]
  IC80 (µg/ml), TZM-bl pseudovirus neutralization: 10.4 µg/mL
[23]
  neutralization IC50: 5.63 µg/mL
[24]
  IC80 neutralization: 5.9 µg/mL
[25]
  IC50 (µg/ml), TZM-bl cell neutralization assay, pseudovirus: 2.57 µg/mL
[26]
  neutralization IC50: 4.2 µg/mL
[27]
  IC80 neutralization: 1.38 µg/mL
[28]
  IC80 neutralization: 40.3 µg/mL
[29]
  neutralization IC50: 0.526 µg/mL
[30]
  neutralization IC50: 0.101 µg/mL
[31]
  neutralization IC50: 0.836 µg/mL
[32]
  IC80 neutralization: 3.08 µg/mL
[33]
  IC80 (µg/ml), TZM-bl pseudovirus neutralization: 0.765 µg/mL
[34]
  neutralization IC50: 1.29 µg/mL
[35]
  IC50 (µg/ml), TZM-bl cell neutralization assay, control pseudovirus: > 50 µg/mL
  IC80 (µg/ml), TZM-bl pseudovirus neutralization: > 50 µg/mL
[36]
  neutralization IC50: 0.756 µg/mL
[37]
  IC80 neutralization: 13.5 µg/mL
[38]
  IC80 neutralization: 2.81 µg/mL
[39]
  neutralization IC50: 8.11 µg/mL
[40]
  neutralization IC50: 2.97 µg/mL
[41]
  neutralization IC50: 1.34 µg/mL
[42]
  IC80 neutralization: 0.447 µg/mL
[43]
  IC80 neutralization: 10 µg/mL
[44]
  IC80 neutralization: 7.36 µg/mL
[45]
  neutralization IC50: 0.721 µg/mL
[46]
  IC80 neutralization: 6.7 µg/mL

## PGZL1 (antibody)
[1]
  neutralization IC50: 21.7 µg/mL
[2]
  IC80 neutralization: > 50 µg/mL
[3]
  IC80 neutralization: > 50 µg/mL
[4]
  IC80 neutralization: 14.5 µg/mL
[5]
  neutralization IC50: 0.424 µg/mL
[6]
  neutralization IC50: 12.9 µg/mL
[7]
  IC80 neutralization: 7.66 µg/mL
[8]
  neutralization IC50: 35.8 µg/mL
[9]
  IC80 neutralization: 33.3 µg/mL
[10]
  IC80 neutralization: > 50 µg/mL
[11]
  neutralization IC50: 2.42 µg/mL
[12]
  neutralization IC50: 1.91 µg/mL
[13]
  neutralization IC50: 0.023 µg/mL
[14]
  neutralization IC50: 10.9 µg/mL
[15]
  neutralization IC50: 3.12 µg/mL
[16]
  IC80 neutralization: 10.5 µg/mL
[17]
  IC80 neutralization: 3.1 µg/mL
[18]
  IC80 neutralization: 9.5 µg/mL
[19]
  IC80 neutralization: > 50 µg/mL
[20]
  IC80 neutralization: 15.8 µg/mL
[21]
  neutralization IC50: 29.6 µg/mL
[22]
  IC80 (µg/ml), TZM-bl pseudovirus neutralization: > 50 µg/mL
[23]
  neutralization IC50: > 50 µg/mL
[24]
  IC80 neutralization: > 50 µg/mL
[25]
  IC50 (µg/ml), TZM-bl cell neutralization assay, pseudovirus: 15.5 µg/mL
[26]
  neutralization IC50: > 50 µg/mL
[27]
  IC80 neutralization: 8.27 µg/mL
[28]
  IC80 neutralization: > 50 µg/mL
[29]
  neutralization IC50: 12.4 µg/mL
[30]
  neutralization IC50: 0.623 µg/mL
[31]
  neutralization IC50: 5.36 µg/mL
[32]
  IC80 neutralization: 11.8 µg/mL
[33]
  IC80 (µg/ml), TZM-bl pseudovirus neutralization: 3.5 µg/mL
[34]
  neutralization IC50: 16.5 µg/mL
[35]
  IC50 (µg/ml), TZM-bl cell neutralization assay, control pseudovirus: > 50 µg/mL
  IC80 (µg/ml), TZM-bl pseudovirus neutralization: > 50 µg/mL
[36]
  neutralization IC50: 13.9 µg/mL
[37]
  IC80 neutralization: > 50 µg/mL
[38]
  IC80 neutralization: 14.9 µg/mL
[39]
  neutralization IC50: > 50 µg/mL
[40]
  neutralization IC50: > 50 µg/mL
[41]
  neutralization IC50: 24.6 µg/mL
[42]
  IC80 neutralization: 2.5 µg/mL
[43]
  IC80 neutralization: > 50 µg/mL
[44]
  IC80 neutralization: > 50 µg/mL
[45]
  neutralization IC50: 0.89 µg/mL
[46]
  IC80 neutralization: > 50 µg/mL

## VRC01 (antibody)
[1]
  neutralization IC50: 0.056 µg/mL
[2]
  IC80 neutralization: 0.068 µg/mL
[3]
  IC80 neutralization: 0.752 µg/mL
[4]
  IC80 neutralization: 0.331 µg/mL
[5]
  neutralization IC50: > 50 µg/mL
[6]
  neutralization IC50: 0.103 µg/mL
[7]
  IC80 neutralization: 0.682 µg/mL
[8]
  neutralization IC50: 0.604 µg/mL
[9]
  IC80 neutralization: 0.202 µg/mL
[10]
  IC80 neutralization: 0.318 µg/mL
[11]
  neutralization IC50: 4.85 µg/mL
[12]
  neutralization IC50: 0.17 µg/mL
[13]
  neutralization IC50: 0.01 µg/mL
[14]
  neutralization IC50: 0.053 µg/mL
[15]
  neutralization IC50: 0.127 µg/mL
[16]
  IC80 neutralization: 0.242 µg/mL
[17]
  IC80 neutralization: 1.28 µg/mL
[18]
  IC80 neutralization: 20.2 µg/mL
[19]
  IC80 neutralization: 0.516 µg/mL
[20]
  IC80 neutralization: 2.34 µg/mL
[21]
  neutralization IC50: 1.61 µg/mL
[22]
  IC80 (µg/ml), TZM-bl pseudovirus neutralization: 1.35 µg/mL
[23]
  neutralization IC50: > 50 µg/mL
[24]
  IC80 neutralization: 0.238 µg/mL
[25]
  IC50 (µg/ml), TZM-bl cell neutralization assay, pseudovirus: 0.338 µg/mL
[26]
  neutralization IC50: 0.01 µg/mL
[27]
  IC80 neutralization: 1.31 µg/mL
[28]
  IC80 neutralization: 2.62 µg/mL
[29]
  neutralization IC50: 0.219 µg/mL
[30]
  neutralization IC50: 0.059 µg/mL
[31]
  neutralization IC50: 0.314 µg/mL
[32]
  IC80 neutralization: 0.912 µg/mL
[33]
  IC80 (µg/ml), TZM-bl pseudovirus neutralization: 0.284 µg/mL
[34]
  neutralization IC50: 0.038 µg/mL
[35]
  IC50 (µg/ml), TZM-bl cell neutralization assay, control pseudovirus: > 50 µg/mL
  IC80 (µg/ml), TZM-bl pseudovirus neutralization: > 50 µg/mL
[36]
  neutralization IC50: > 50 µg/mL
[37]
  IC80 neutralization: 0.23 µg/mL
[38]
  IC80 neutralization: 1.48 µg/mL
[39]
  neutralization IC50: 1.53 µg/mL
[40]
  neutralization IC50: 0.057 µg/mL
[41]
  neutralization IC50: 0.059 µg/mL
[42]
  IC80 neutralization: 0.23 µg/mL
[43]
  IC80 neutralization: 0.11 µg/mL
[44]
  IC80 neutralization: 4.99 µg/mL
[45]
  neutralization IC50: 0.025 µg/mL
[46]
  IC80 neutralization: 43.7 µg/mL
